First the molecules themselves.
B1: Recombinant human Bri2 BRICHOS domain (domain or fragment, UniProt Q9Y287 137-231, looked up)
chain: FADSDPANIVHDFNKKLTAYLDLNLDKCYVIPLNTSIVMPPRNLLELLINIKAGTYLPQSYLIHEHMVITDRIENIDHLGFFIYRLCHDKETYKL
B2: NOTCH3 EGF1–5 R133C (CADASIL-mutated truncated human Notch3 extracellular domain, amino acids 1–234) (domain or fragment)
chain: not shown
notes: signal peptide in the construct; human NOTCH3 extracellular domain, first five EGF-like repeats, amino acids 1–234, with the CADASIL mutation R133C (in EGF3); codon-optimized construct derived from Duering et al., 2011; R133C is a common CADASIL mutation found in patients; also called N3 EGF1–5 R133C; R133C mutant
B3: NOTCH3 EGF1–5 wildtype (truncated human Notch3 extracellular domain, first five EGF-like repeats, amino acids 1–234) (domain or fragment)
chain: not shown
notes: signal peptide in the construct; human NOTCH3 extracellular domain, first five EGF-like repeats, amino acids 1–234; codon-optimized construct derived from Duering et al., 2011; also called N3 EGF1–5 WT; WT N3 EGF1–5

Series [1] concerns the target B2. The series can be described thus: cell-based or functional assay.
Series [2] concerns the molecule itself. The series can be described thus: native gel or EMSA; N3 EGF1–5 proteins at 30 µM in 1 × PBS, 37°C for 80 h with and without Bri2 BRICHOS at 1:1 and 1:2 molar; native loading buffer free of DTT and SDS; 6% native PAGE. (In general: Mobility shift assays separate free from complexed probe on a gel.)

The text below walks through data of article PMC8864064, “Molecular Chaperone BRICHOS Inhibits CADASIL-Mutated NOTCH3 Aggregation In Vitro” (Frontiers in Molecular Biosciences, 2022).

As for B1, in series [1], the “final aggregation intensity of R133C by turbidity at 360 nm, 37°C, 10 µM, BRICHOS at 1:1 molar ratio” value was at most 50 % reduction.

B2: the binding result in series [2] is “binds”.

For B3, the binding result in series [2] is reported as “binds”.
